Laboratory results reported in the supplement of paper PMC9170038.

Test system: MS2 coat protein
Test: apparent KD of MS2 coat protein; designed switch direction (-1 OFF switch, 1 ON switch): -1; higher = weaker reporter binding
Method in brief: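 RNA switches sharing common flanks were transcribed by stalled E. coli RNA polymerase on Illumina chips. A doubling series of SNAP-549-labelled MS2 coat protein, from 0.7 or 1.5 nM to 3 µM, was applied in Tris-HCl pH 7.5 buffer with KCl, MgCl2, BSA, DTT, tRNA and Tween-20. Each step lasted 0.8–1.5 h at the bottom of the series and 10–20 min at the top. Normalised cluster fluorescence was curve-fitted, giving apparent KD as the per-design median over clusters.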

[1] = Eterna round: R95, input ligand: microRNA oligo, concentration not stated
[2] = Eterna round: R95, input ligand: FMN 200 uM
[3] = Eterna round: R95, input ligand: none
[4] = input ligand: microRNA oligo, concentration not stated

| Sequence | apparent KD of MS2 coat protein (input ligand: FMN 200 uM) | apparent KD of MS2 coat protein (input ligand: none) | apparent KD of MS2 coat protein [1] | apparent KD of MS2 coat protein [2] | apparent KD of MS2 coat protein [3] | apparent KD of MS2 coat protein [4] |
| --- | --- | --- | --- | --- | --- | --- |
| GGUUAUUCUGUAUGGGUACACAUGAGGAUCACCCAUGUACAGAGGUCUACCCUAAUAUAGCAAGCUGGCCCGUCCUA [Eternabot (L1) Solution 24] (Eterna round: R97, puzzle: Sensor, turn-off variant 1) | 148 nM | 132 nM |  |  |  |  |
| GGUUCGAAAGUGAGGAUAUGCUGGUCCUUGGAUCAGCAGAAGGCACAUGAGGAUCACCCAUGUGGUAACGGACC [Mat - Exclusion 4 - Eli Mod - D37] (Eterna round: R97, puzzle: Brourd's mod of Exclusion 4) | 122 nM | 25.2 nM |  |  |  |  |
| GGUUGACAUGAGGAUCACCCAUGUGAGGAUAUCGGCUGGUACGUGUUGGCUGGCAUCUCGAGAAGGCACAUAGG [Exclusion 1 V59] (puzzle: Exclusion 1) |  |  | 155 nM |  |  |  |
| GGUUGACAUGAGGAUCACCCAUGUGAGGAUAUGCGAGAGAAAAAAGUGAGGAAGAAUAGCAGAAGGCGCUGUCG [salish99-ex1_r3_011] (puzzle: Exclusion 1) |  |  | 41.7 nM | 44.6 nM | 21.1 nM |  |
| GGUUGGCGAGGAUAUACAUGAGGAUCACCCAUGUGAAAGAAAAAAGUGAGGAAGAAAAGUAGAAGGCGCUGACG [salish99_ex3_r3_016] (puzzle: Exclusion 3) |  |  | 8.93 nM | 5.86 nM | 14.4 nM |  |
| GGUUGGCGAGGAUAUACAUGAGGAUCACCCAUGUGAGAAAGAAAAGUGAGGAAGAAAAGUAGAAGGCGCUGACG [Mat - Exclusion 3 - Mod of Salish D2] (puzzle: Exclusion 3) |  |  | 53.4 nM | 583 nM | 99.8 nM |  |
| GGUUGGCGAGGAUAUACAUGAGGAUCACCCAUGUGAGAGAAAAAAGUCAGGAAGAAAAGUAGAAGGCGCUGACG [salish99_ex3_r3_028] (puzzle: Exclusion 3) |  |  | 21.7 nM | 32.4 nM | 22.5 nM |  |
| GGUUGGCGAGGAUAUACAUGAGGAUCACCCAUGUGAGAGAAAAAAGUGAGGACGAAAAGUAGAAGGCGCUGACG [salish99_ex3_r3_032] (puzzle: Exclusion 3) |  |  | 69.1 nM | 223 nM | 61.6 nM |  |
| GGUUGGCGAGGAUAUACAUGAGGAUCACCCAUGUGAGAGAAUAAAGUGAGGAAGAAAAGUAGAAGGCGCUGACG [salish99_ex3_r3_013] (puzzle: Exclusion 3) |  |  | 42.1 nM | 1030 nM | 47 nM |  |
| GGUUUGCGGCAGGAUAUCCAUCCGCGGUAUGGUGGAGAAGGGCUGACAUGAGGAUCACCCAUGUGCGUCCUAGG [salish99_ex6_r4_018] (Eterna round: R97, puzzle: Exclusion 6) | 24.6 nM | 18.8 nM |  |  |  |  |
| GGUUUGGGAGGAUAUGGUUUUAAUAACAUGAGGAUCACCCAUGUAAAUAGAUCCUCAAGGCCAGAAGGCUCGGGCC [-24.9, -24.02 kcal, A 29%] (Eterna round: R97, puzzle: Exclusion 5) | 508 nM | 143 nM |  |  |  |  |
| GUAAAACAUGAGGAUCACCCAUGUCAGGAUAUACGAUUCCACCCUAACUGCGUGGAACGUAGAAGGGACAUAGG [Exclusion 1 (MOD6.1 Esqu)] (Eterna round: R97, puzzle: Exclusion 1) | 57.9 nM | 221 nM |  |  |  |  |
| GUAAAACAUGUAGGAUAUGCGUGGCAAAGCUAUGCAGAAGGACAUGAGGAUCACCCAUGUUAAAGCGUCUGCGUACAGAUGCAA [Mat - Exclusion NG 1 - Mod of JL - D95] (Eterna round: R96, puzzle: Exclusion NG 1) | 143 nM | 30.7 nM |  |  |  | 30.5 nM |
| GUAAAGUGAGGAUAUGGUAAAGUAAGUAUUUAGUAAGUAAUCCAGAAGGCACAUGAGGAUCACCCAUGUAAAUG [Mat - Exclusion 4 - D98] (puzzle: Exclusion 4) |  |  | 29.2 nM |  |  |  |
| GUAAAGUGAGGAUAUGGUAAAGUAAUUAUUUAGUAAGUAAUCCAGAAGGCACAUGAGGAUCACCCAUGUAAAUG [Mat - Exclusion 4 - D97] (puzzle: Exclusion 4) |  |  | 25.7 nM |  |  |  |
| GUAAAUCAUGUAGGAUAUGCAUAGCAAAGCUAUGCAGAAGGACAUGAGGAUCACCCAUGUCAUUCCGUCUGGAGACAGACGGAA [Mat - Exclusion NG 1 - Mod of JL - D59] (Eterna round: R96, puzzle: Exclusion NG 1) | 121 nM | 32.2 nM |  |  |  | 22 nM |

| Sequence | apparent KD of MS2 coat protein (input ligand: FMN 200 uM) | apparent KD of MS2 coat protein (input ligand: none) | apparent KD of MS2 coat protein [1] | apparent KD of MS2 coat protein [2] | apparent KD of MS2 coat protein [3] | apparent KD of MS2 coat protein [4] |
| --- | --- | --- | --- | --- | --- | --- |
| GUAAAUCAUGUAGGAUAUGCGUGGCGAAGCUAUGCAGAAGGACAUGAGGAUCACCCAUGUGCUUCCGUCUGAGAACAGACGGAA [Mat - Exclusion NG 1 - Mod of JL - D27] (Eterna round: R96, puzzle: Exclusion NG 1) | 105 nM | 341 nM |  |  |  | 187 nM |
| GUAAAUCAUGUAGGAUAUGCGUGGCGAAGCUAUGCAGAAGGACAUGAGGAUCACCCAUGUGCUUCCGUCUGAGAACAGACGGAG [Mat - Exclusion NG 1 - Mod of JL - D28] (Eterna round: R96, puzzle: Exclusion NG 1) | 222 nM | 244 nM |  |  |  | 116 nM |
| GUAACAUGCUGGUGAUCAUACAUGAGGAUCACCCAUGUAACAAGCUUUUUGCUCGUCUUAUAAGAUCACCAGCAUGU [Stov1/9-A3] (Eterna round: R97, puzzle: Sensor, turn-off variant 1) | 12.2 nM | 13.6 nM |  |  |  |  |
| GUAACAUGCUGGUGAUCAUACAUGAGGAUCACCCAUGUAACAAGCUUUUUGCUCGUCUUAUAAGAUUACUAGUAUGU [Stov1/10-A3] (Eterna round: R97, puzzle: Sensor, turn-off variant 1) | 22 nM | 24.3 nM |  |  |  |  |
| GUAACAUGCUGGUGAUCAUACAUGAGGAUCACCCAUGUAACAAGCUUUUUGCUCGUCUUAUAAUUUAAGAUCACCAG [Stov1/7-A3] (Eterna round: R97, puzzle: Sensor, turn-off variant 1) | 16.3 nM | 16.2 nM |  |  |  |  |
| GUAAUGAUUGUGAGGAUAUUUCAUAGAUAGAUAUUAGAGAAGGUACAUGAGGAUCACCCAUGUGUGAUUAUACA [Brourd's EX4 #72] (Eterna round: R97, puzzle: Brourd's mod of Exclusion 4) | 97.3 nM | 114 nM |  |  |  |  |
| GUAAUGCUAGGAUAUCGACAAAUUUACAUGAGGAUCACCCAUGUGAACCCUGUGUGGUAACGAGAAGGAGUCAGCU [Eternabot (L2) Solution 54] (Eterna round: R97, puzzle: Exclusion 5) | 39.1 nM | 53.5 nM |  |  |  |  |
| GUAAUGCUGCGAGGAUAUACAUGAGGAUCACCCAUGUGGAUGUCUGAGGCUUUGCCUCAGACGAUGUAGAAGGCGCAGUAAAAU [Mat - Exclusion NG 2 - Mod of JL - D53] (Eterna round: R96, puzzle: Exclusion NG 2) | 87.5 nM | 28.3 nM |  |  |  | 11.5 nM |
| GUAAUUAAUGUAGGAUAUGCAAGGCGAACCUAAGCAGAAGGAACAUGAGGAUCACCCAUGUAUGCGGUCUGCGUACAGAUCGCU [salish99_ExNG1_r4_004] (Eterna round: R96, puzzle: Exclusion NG 1) | 15.1 nM | 19.7 nM |  |  |  | 13.3 nM |
| GUAAUUAAUGUAGGAUAUGCAAGGCGAACCUAAGCAGAAGGACAUGUGGAUCACCCAUGACAUGAGGAUCACCCAUGUAUCGCU [salish99_ExNG1_r4_005] (Eterna round: R96, puzzle: Exclusion NG 1) | 109 nM | 212 nM |  |  |  | 122 nM |
| GUAAUUAUAUAGGAUAUCGAAUUUAUUAUUUAACGAGAAGGAUGAACAUGAGGAUCACCCAUGUGGUAUCAUGG [JL-ex6-3.04] (puzzle: Exclusion 6) |  |  | 139 nM | 145 nM | 165 nM |  |
| GUACACGGCUAGGAUAUCAUUCCUUGCGACCCUUGAGAAGGAGCCACAUGAGGAUCACCCAUGUCAUAUGCAGA [Eternabot (Original) Solution 38] (Eterna round: R97, puzzle: Exclusion 6) | 37.5 nM | 33.2 nM |  |  |  |  |
| GUACAUAUAGGAUAUACAUGAGGAUCACCCAUGUAAAUCGUUAGUUGGGAUUCUAAAAGUAGAAGGGUGGUGCG [Eternabot (L2) Solution 30] (Eterna round: R97, puzzle: Exclusion 3) | 27.6 nM | 27.4 nM |  |  |  |  |
| GUACCAGAUGUCAGGAUAUGCUUUGAGAGUUGCGAGUAGAAGGGACAUGAGGAUCACCCAUGUACCUACAGGAA [BmEX4 B.30] (Eterna round: R97, puzzle: Brourd's mod of Exclusion 4) | 14.7 nM | 14 nM |  |  |  |  |
| GUACUGAAGCUUUGCUUUAGUCGUACAUGAGGAUCACCCAUGUAGGAUAUGGUAAGCAUAGCUUACUAGAAGGAUAGAGUGAUC [Mat - Exclusion NG 3 - Mod of JL - D65] (Eterna round: R96, puzzle: Exclusion NG 3) | 169 nM | 97.8 nM |  |  |  | 56.6 nM |
| GUACUGACAGGAUAUACAUGAGGAUCACCCAUGUCCUUAGGCUGACAAAAGUCAGCAAGUAGAAGGGUCUGUAC [Omei Ex3 Model Bachelor's Dilema v3] (Eterna round: R97, puzzle: Exclusion 3) | 1500 nM | 85.5 nM |  |  |  |  |
